# Test results from patent US20140322262A1.
# Assays:
# Histones = test: Luminex AtheNA Multi-Lyte ANA Test, 0.15 µg mab per test
# centromere B protein = centromere B protein (UniProt P07199); test: as above
# FMS peptide (T4; HIV-1) = test: SPR, FMS conjugate in DMPC liposomes
# SS-A/Ro = test: Luminex AtheNA Multi-Lyte ANA Test, 0.15 µg mab per test
# Mab 4E10 = test: ELISA; gp140 (19.25-1230 nM) mixed with 10 µg/ml 4E10 MAb, added to wells with 1.35 µg cardiolipin
# Chain of UniProt P07199 (P07199 2-599): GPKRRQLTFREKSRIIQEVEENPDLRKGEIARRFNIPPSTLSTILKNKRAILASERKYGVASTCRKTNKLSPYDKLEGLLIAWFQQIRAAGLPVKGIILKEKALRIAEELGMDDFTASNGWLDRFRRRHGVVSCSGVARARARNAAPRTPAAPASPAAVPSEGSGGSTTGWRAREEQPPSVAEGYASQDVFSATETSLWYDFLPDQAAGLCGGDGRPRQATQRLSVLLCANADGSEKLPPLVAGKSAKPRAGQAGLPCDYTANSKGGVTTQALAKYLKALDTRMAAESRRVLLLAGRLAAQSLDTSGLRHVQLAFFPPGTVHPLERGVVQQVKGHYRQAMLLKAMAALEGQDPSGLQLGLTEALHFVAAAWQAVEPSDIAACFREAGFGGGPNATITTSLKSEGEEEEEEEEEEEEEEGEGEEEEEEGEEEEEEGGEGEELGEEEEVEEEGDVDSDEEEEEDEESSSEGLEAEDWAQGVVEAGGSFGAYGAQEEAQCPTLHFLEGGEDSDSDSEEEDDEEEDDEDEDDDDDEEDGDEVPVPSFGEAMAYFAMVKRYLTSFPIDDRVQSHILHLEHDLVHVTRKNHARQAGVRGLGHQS
# Chain of FMS peptide (T4; HIV-1) (P03375 656-683): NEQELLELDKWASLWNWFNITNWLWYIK
Substance,relative units based on a standard curve (relative units) (Histones),relative units based on a standard curve (relative units) (centromere B protein),Kd (FMS peptide (T4; HIV-1)),relative units based on a standard curve (relative units) (SS-A/Ro),IC50 (Mab 4E10)
IgG1b12 (antibody),185,479,,,
Mab 2F5 (antibody),1010,1780,0.18 nM,290,
Mab 4E10 (antibody),,,27 nM,221,
soluble HIV-1 Env gp140 oligomers (CON-S),,,,,145 nM
